Holding throughout (test): fluorescence anisotropy
Common to all, as to settings: FA: 25 mM HEPES pH 7.45, 150 mM NaCl, 5% glycerol, 10 nM probe, temperature not stated, EMSA: 250 nM probe in 25 mM HEPES pH 7.45, 100 mM NaCl
For orientation: In fluorescence polarisation assays a small probe gives low polarisation when free and higher when bound to something large.

In data set [1] the target is UPF2L (UniProt Q9HAU5).
Data set [2] addresses UPF2 MIF4G-D3 (UniProt Q9HAU5).
For data set [3], the target named is UPF2 MIF4G-D1-2 (UniProt Q9HAU5).
In data set [4] the target is UPF2 MIF4G-D2 (UniProt Q9HAU5).
In data set [5] the target is UPF2 MIF4G-D2-3 (UniProt Q9HAU5).
For data set [6], the target named is UPF2 MIF4G-D1 (UniProt Q9HAU5).

Among the data in paper PMC12170185 are Kd values, retold here.

Sequence of UPF2L (Q9HAU5 121-1227): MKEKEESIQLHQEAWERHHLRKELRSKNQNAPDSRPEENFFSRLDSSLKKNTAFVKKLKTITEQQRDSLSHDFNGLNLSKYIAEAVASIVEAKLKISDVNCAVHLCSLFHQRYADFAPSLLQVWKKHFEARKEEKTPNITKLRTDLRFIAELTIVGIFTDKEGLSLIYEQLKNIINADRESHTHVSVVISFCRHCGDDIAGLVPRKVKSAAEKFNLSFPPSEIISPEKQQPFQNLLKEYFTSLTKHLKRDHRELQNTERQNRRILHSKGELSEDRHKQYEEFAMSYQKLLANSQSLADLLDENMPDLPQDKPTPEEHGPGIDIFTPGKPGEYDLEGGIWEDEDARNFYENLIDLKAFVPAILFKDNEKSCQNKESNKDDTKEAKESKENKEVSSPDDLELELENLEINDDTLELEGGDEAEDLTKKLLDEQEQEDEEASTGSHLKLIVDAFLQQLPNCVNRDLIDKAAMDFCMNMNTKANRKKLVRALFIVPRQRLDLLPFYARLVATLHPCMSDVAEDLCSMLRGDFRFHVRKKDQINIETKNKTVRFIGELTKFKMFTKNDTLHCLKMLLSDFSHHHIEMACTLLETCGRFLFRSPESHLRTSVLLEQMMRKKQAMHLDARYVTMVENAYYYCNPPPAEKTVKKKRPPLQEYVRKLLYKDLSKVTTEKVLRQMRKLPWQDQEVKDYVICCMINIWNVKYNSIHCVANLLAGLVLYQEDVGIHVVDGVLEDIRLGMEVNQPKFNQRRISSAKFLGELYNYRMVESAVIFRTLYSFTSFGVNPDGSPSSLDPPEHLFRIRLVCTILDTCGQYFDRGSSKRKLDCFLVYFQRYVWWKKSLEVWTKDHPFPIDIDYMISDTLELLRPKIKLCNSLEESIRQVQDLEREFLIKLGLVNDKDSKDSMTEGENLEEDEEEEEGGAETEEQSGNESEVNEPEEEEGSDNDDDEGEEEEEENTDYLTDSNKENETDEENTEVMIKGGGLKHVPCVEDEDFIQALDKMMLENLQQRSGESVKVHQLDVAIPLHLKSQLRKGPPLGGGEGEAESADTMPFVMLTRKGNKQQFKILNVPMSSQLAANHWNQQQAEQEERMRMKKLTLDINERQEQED
Sequence of UPF2 MIF4G-D3 (Q9HAU5 761-1054): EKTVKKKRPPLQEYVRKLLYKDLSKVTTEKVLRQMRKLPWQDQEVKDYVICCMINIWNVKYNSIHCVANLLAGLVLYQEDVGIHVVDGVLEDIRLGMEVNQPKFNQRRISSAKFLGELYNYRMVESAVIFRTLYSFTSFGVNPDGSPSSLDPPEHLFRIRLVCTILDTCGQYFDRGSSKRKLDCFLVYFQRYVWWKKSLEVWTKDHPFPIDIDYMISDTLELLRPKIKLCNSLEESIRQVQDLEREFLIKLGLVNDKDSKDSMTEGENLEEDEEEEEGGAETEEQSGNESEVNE
Sequence of UPF2 MIF4G-D2-3 (Q9HAU5 455-1054): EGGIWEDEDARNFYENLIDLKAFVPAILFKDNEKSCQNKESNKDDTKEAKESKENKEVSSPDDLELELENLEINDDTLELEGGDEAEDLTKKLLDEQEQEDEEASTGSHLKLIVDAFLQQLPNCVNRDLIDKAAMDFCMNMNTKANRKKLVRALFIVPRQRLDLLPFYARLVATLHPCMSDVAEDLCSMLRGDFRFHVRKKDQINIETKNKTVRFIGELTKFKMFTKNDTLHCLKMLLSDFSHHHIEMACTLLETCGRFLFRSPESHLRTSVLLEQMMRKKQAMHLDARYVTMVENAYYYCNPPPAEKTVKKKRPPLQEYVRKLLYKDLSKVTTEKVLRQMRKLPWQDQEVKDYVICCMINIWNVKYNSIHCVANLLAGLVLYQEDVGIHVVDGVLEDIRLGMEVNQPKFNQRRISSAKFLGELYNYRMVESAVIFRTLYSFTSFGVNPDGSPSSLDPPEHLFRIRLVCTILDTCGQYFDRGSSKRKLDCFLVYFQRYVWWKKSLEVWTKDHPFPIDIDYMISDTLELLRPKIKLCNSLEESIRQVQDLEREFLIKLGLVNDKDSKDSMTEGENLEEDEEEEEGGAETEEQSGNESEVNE
Sequence of UPF2 MIF4G-D1-2 (Q9HAU5 120-757): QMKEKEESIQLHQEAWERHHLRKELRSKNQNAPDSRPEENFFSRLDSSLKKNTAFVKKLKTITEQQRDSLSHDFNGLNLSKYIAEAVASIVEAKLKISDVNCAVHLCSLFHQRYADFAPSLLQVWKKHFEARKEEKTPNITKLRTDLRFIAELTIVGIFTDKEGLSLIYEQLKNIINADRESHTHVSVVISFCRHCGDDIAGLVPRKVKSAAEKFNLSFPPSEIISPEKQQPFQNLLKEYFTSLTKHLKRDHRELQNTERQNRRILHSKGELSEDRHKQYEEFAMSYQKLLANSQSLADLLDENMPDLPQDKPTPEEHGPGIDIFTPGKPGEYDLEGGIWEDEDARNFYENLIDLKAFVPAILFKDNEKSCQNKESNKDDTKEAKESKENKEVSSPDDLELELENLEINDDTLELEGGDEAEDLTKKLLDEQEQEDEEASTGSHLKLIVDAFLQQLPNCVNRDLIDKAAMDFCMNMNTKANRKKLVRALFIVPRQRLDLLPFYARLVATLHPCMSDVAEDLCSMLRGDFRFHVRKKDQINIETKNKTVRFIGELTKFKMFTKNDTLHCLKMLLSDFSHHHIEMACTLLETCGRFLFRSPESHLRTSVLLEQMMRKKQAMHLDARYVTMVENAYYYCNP
Sequence of UPF2 MIF4G-D2 (Q9HAU5 455-757): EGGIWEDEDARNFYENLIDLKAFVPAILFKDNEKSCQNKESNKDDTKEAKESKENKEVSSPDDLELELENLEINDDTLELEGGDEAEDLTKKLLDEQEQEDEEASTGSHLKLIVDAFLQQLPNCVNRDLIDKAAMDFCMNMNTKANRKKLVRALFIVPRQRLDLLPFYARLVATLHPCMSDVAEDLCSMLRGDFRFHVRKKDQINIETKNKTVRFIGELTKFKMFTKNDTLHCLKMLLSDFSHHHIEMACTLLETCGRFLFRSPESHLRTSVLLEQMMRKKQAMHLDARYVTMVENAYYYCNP
Sequence of UPF2 MIF4G-D1 (Q9HAU5 120-486): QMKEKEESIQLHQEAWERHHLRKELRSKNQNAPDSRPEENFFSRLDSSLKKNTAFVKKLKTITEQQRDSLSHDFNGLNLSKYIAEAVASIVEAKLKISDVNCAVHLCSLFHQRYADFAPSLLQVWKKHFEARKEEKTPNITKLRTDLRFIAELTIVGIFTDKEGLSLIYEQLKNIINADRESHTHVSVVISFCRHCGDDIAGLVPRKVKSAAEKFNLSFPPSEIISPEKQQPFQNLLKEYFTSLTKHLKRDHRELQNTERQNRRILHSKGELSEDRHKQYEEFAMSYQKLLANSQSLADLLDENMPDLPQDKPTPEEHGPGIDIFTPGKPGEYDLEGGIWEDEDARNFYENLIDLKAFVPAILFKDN

What is called Kd is the constant that tells how readily two partners part at equilibrium. Read a low Kd as tighter binding. 24 nt ds-DNA showed an equilibrium dissociation constant (Kd) in data set [1] of 334 nM.

24 nt ds-RNA registered a Kd in data set [1] of 454 nM.

With 13 nt PUR ss-RNA, the Kd in data set [2] was found to be 1280 nM; in data set [1] it was 683 nM.

For 13 nt PYR ss-RNA, the dissociation constant (Kd) in data set [2] was 529 nM; in data set [1], 650 nM.

24 nt ss-DNA showed a dissociation constant (Kd) in data set [1] of 431 nM.

As to 24 nt ss-RNA, the Kd in data set [3] is 784 nM; in data set [4], 3500 nM; in data set [2], 694 nM; in data set [1], 135 nM; in data set [5] it was 530 nM; in data set [6], 1400 nM.
